# According to patent US20230220042A1 (SHANGHAI JIAO TONG UNIVERSITY SCHOOL OF MEDICINE, published 2023):
# Changes are numbered by the printed parent chain. Names may count otherwise.
# B1: human IgG2 anti-mouse CD40 surface displayed antibody, Fc mutant P271G (antibody, name in EU numbering)
# light chain (with the P2A rest): DTVLTQSPALAVSPGERVTISCRASDSVSTLMHWYQQKPGQQPKLLIYLASHLESGVPARFSGSGSGTDFTLTIDPVEADDTATYYCQQSWNDPWTFGGGTKLELKRTVAAPSVFIFPPSDEQLKSGTASVVCLLNNFYPREAKVQWKVDNALQSGNSQESVTEQDSKDSTYSLSSTLTLSKADYEKHKVYACEVTHQGLSSPVTKSFNRGECGSGATNFSLLKQAGDVEENPG
# heavy chain: EVQLVESDGGLVQPGRSLKLPCAASGFTFSDYYMAWVRQAPTKGLEWVASISYDGSSTYYRDSVKGRFTISRDNAKSTLYLQMDSLRSEDTATYYCGRHSSYFDYWGQGVMVTVSSASTKGPSVFPLAPCSRSTSESTAALGCLVKDYFPEPVTVSWNSGALTSGVHTFPAVLQSSGLYSLSSVVTVPSSNFGTQTYTCNVDHKPSNTKVDKTVERKCCVECPPCPAPPVAGPSVFLFPPKPKDTLMISRTPEVTCVVVDVSHEDGEVQFNWYVDGVEVHNAKTKPREEQFNSTFRVVSVLTVVHQDWLNGKEYKCKVSNKGLPAPIEKTISKTKGQPREPQVYTLPPSREEMTKNQVSLTCLVKGFYPSDIAVEWESNGQPENNYKTTPPMLDSDGSFFLYSKLTVDKSRWQQGNVFSCSVMHEALHNHYTQKSLSLSPGKLEPPPSTVSNMATVAVLVVLGAAIVTGAVVAFVMKMRRRNTGGKGGDYALAPGSQTSDLSLPDCKVMVHDPHSLA
# notes: as m1; positions are Eu numbers; copies: 2 + 2
# B2: human IgG2 anti-mouse CD40 surface displayed antibody, Fc mutant S267E (antibody, name in EU numbering)
# light chain (with the P2A rest): B1 light chain (with the P2A rest)
# heavy chain: B1 heavy chain with S262E, G266P
# notes: as for B1
# B3: human IgG2 anti-mouse CD40 surface displayed antibody, S267E/S298G (antibody, name in EU numbering)
# light chain (with the P2A rest): B1 light chain (with the P2A rest)
# heavy chain: B1 heavy chain with S262E, G266P, S293G
# notes: As m1 with the Fc mutations
# B4: human IgG2 anti-mouse CD40 surface displayed antibody, S267E/A330S (antibody, name in EU numbering)
# light chain (with the P2A rest): B1 light chain (with the P2A rest)
# heavy chain: B1 heavy chain with S262E, G266P, A325S
# notes: As m1 with the Fc mutations
# B5: human IgG2 anti-mouse CD40 surface displayed antibody, P233G/S267E (antibody)
# light chain (with the P2A rest): B1 light chain (with the P2A rest)
# heavy: B1 heavy chain with P229G, S262E, G266P
# notes: As m1 with the Fc mutations; copies: 2 + 2
# B6: human IgG2 anti-mouse CD40 surface displayed antibody, P233G/S267E/S298G (antibody)
# light chain (with the P2A rest): B1 light chain (with the P2A rest)
# heavy: B1 heavy chain with P229G, S262E, G266P, S293G
# notes: as for B5
# B7: human IgG2 anti-mouse CD40 surface displayed antibody, L328W (antibody, name in EU numbering)
# light chain (with the P2A rest): B1 light chain (with the P2A rest)
# heavy chain: B1 heavy chain with G266P, L323W
# notes: As m1 with the Fc mutation
# B8: human IgG2 anti-mouse CD40 surface displayed antibody, G327A (antibody, name in EU numbering)
# light chain (with the P2A rest): B1 light chain (with the P2A rest)
# heavy chain: B1 heavy chain with G266P, G322A
# notes: m1 with this Fc mutation (Eu numbering); copies: 2 + 2
# B9: human IgG2 anti-mouse CD40 surface displayed antibody, G327A/A330V (antibody, name in EU numbering)
# light chain (with the P2A rest): B1 light chain (with the P2A rest)
# heavy chain: B1 heavy chain with G266P, G322A, A325V
# notes: m1 with these Fc mutations (Eu numbering); copies: 2 + 2
# B10: human IgG2 anti-mouse CD40 surface displayed antibody, G327A/A330R (antibody, name in EU numbering)
# light chain (with the P2A rest): B1 light chain (with the P2A rest)
# heavy chain: B1 heavy chain with G266P, G322A, A325R
# notes: as for B9
# B11: human IgG2 anti-mouse CD40 surface displayed antibody, Fc mutant S267E/P329R (antibody, name in EU numbering)
# light chain (with the P2A rest): B1 light chain (with the P2A rest)
# heavy chain: B1 heavy chain with S262E, G266P, P324R
# notes: as for B1
# B12: human IgG2 anti-mouse CD40 surface displayed antibody, Fc mutant P271G/I332L (antibody, name in EU numbering)
# light chain (with the P2A rest): B1 light chain (with the P2A rest)
# heavy chain: B1 heavy chain with I327L
# notes: as for B1
# Biological target: Biotin-FcγRIIB (human) (UniProt P31994)
# Experiment: NGS of 3T3 display library Cmix flow-sorted for FcγRIIB binding
Molecule,"enrichment factor, percentage after 1st sorting/percentage before sorting","enrichment factor, percentage after 2nd sorting/percentage after 1st sorting","enrichment factor, percentage after 3rd sorting/percentage after 2nd sorting","enrichment factor, percentage after 3rd sorting/percentage before sorting","increased factor, mutant enrichment factor/wild-type enrichment factor",percentage after 1st sorting,percentage after 2nd sorting,percentage after 3rd sorting,percentage before sorting
"human IgG2 anti-mouse CD40 surface displayed antibody, V234M/S267E/S298G/I332L",16.5,64.4,0.66,695,1850,0.01%,0.46%,0.3%,0%
"human IgG2 anti-mouse CD40 surface displayed antibody, V234M/S267E/S298L/L328W",,,5.13,,,,0.1%,0.53%,
"human IgG2 anti-mouse CD40 surface displayed antibody, A235W/V266L/S298L/L328W",,70.1,4.67,,,0%,0.05%,0.22%,
"human IgG2 anti-mouse CD40 surface displayed antibody, P233F/V266L/S298L/L328W",,94.7,1.79,,,0%,0.16%,0.29%,

# Biological target: T1, Biotin-FcγRIIB (human, UniProt P31994 43-217, limits assumed, biotin-labelled)
# T1 construct: Bought, biotin-labelled; used at 1 µg/ml for staining and sorting; also called human FcγRIIB; CD32b
# T1 sequence (looked up): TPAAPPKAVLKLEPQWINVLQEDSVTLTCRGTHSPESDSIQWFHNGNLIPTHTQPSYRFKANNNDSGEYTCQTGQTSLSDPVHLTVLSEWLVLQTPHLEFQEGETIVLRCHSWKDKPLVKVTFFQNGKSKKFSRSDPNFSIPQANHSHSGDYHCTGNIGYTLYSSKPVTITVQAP
# Experiment: FACS sorting of displayed Fc library on biotin-FcγRIIB, NGS
Molecule,Increased factor b Site 1 (point mutation/wild-type),Increased factor b Site 2 (point mutation/wild-type)
B1,4.7,4.7
B2,28.5,

# Biological target: T2, Biotin-FcγRIIB (human, UniProt P31994 43-217, limits assumed, biotin label)
# T2 construct: Soluble labelled protein used to stain and sort the display cells; also called human FcγRIIB; CD32b
# T2 sequence (looked up): T1 sequence (looked up)
# Experiment: NGS of 3T3 display library IgG2_C01 flow-sorted for FcγRIIB binding
# From the text: Then flow cytometry is used for sorting the cells with high affinity to FcγRIIB for two to three rounds. […] IgG2_C01 is a combined mutation (Type I) library having at most 1 mutation in each of the four regions of P233-V240, V266-P271, S298-T299, and G327-I332; IgG2_C02 is a cell library made by combining the combined mutation (Type II) libraries of four regions of P233-V240, V266-P271, S298-T299 and G327-I332 together and transferring it into 3T3 cells.
Molecule,"enrichment factor, percentage after 1st sorting/percentage before sorting","enrichment factor, percentage after 2nd sorting/percentage after 1st sorting","enrichment factor, percentage after 2nd sorting/percentage before sorting","increased factor, mutant enrichment factor/wild-type enrichment factor",percentage after 1st sorting,percentage after 2nd sorting
B3,9.16 ratio,19.2 ratio,176 ratio,207 ratio,0.01%,0.25%
B4,,43.1 ratio,,,0%,0.03%
B5,3.31 ratio,5.47 ratio,18.1 ratio,21.3 ratio,0.01%,0.05%
B6,7.13 ratio,38.5 ratio,274 ratio,323 ratio,0.01%,0.2%
B7,1.75 ratio,4.26 ratio,7.46 ratio,8.78 ratio,0.25%,1.05%

# Biological target: T3, Biotin-FcγRIIB (human FcγRIIB, Sino Biological) (human, UniProt P31994 43-217, limits assumed, biotin-labeled)
# T3 construct: Used at 1 µg/ml with Streptavidin-APC for flow cytometry and sorting; also called CD32b
# T3 sequence (looked up): T1 sequence (looked up)
# Experiment: NGS after FACS sort of 3T3-displayed Library4 for biotin-FcγRIIB binding
Molecule,Enrichment factor (percentage after sorting/percentage before sorting),Increased factor (enrichment factor/wild-type enrichment factor)
B8,5.05,3.38
B9,6.98,4.67
B10,98.3,65.8

# Biological target: T1, Biotin-FcγRIIB
# Experiment: magnetic sorting on biotin-FcγRIIB with unlabelled activating FcγRs, NGS; LibraryMix #4
# Protocol: 3T3 cells were collected by trypsin digestion, and a single cell suspension was prepared. […] The cells were incubated for 15 minutes on ice and then washed twice with MACS buffer and re-suspended in 100 μl MACS buffer. Twenty-five μl anti-Biotin magnetic beads were added, and the cells were incubated for 15 minutes on ice and then washed once with MACS buffer and re-suspended to 500 μl, and added to the LS column put in the magnetic field. The effluent was collected, washed with 3 mL of MACS buffer and collected; The LS column was then removed out of the magnetic field, and 5 mL of MACS buffer was used to rapidly elute the remaining cells from the sorting column to collect positive cells, which are the high I/A ratio cells.
# The high-FcγRIIB-affinity cells obtained from the above flow cytometry sorting are further sorted by magnetic-activated sorting. The cells are incubated with the mixture of Biotin-labeled FcγRIIB and non-labeled activating FcγRs, and then the labeled cells are sorted by anti-Biotin magnetic beads. The enrichment ratios after sorting relative to before sorting are analyzed by NGS.
Molecule,Enrichment factor (percentage after sorting/percentage before sorting),Increased factor (mutation enrichment factor/wild-type enrichment factor),Percentage after sorting/unbinding percentage,Percentage before sorting/unbinding percentage
B1,3.66,3.89,19,5.18
B11,4.85,5.16,6.17,1.27
B12,2.82,3,16,5.66
B2,2.86,3.04,52.6,18.4
